Legend:
Experiment in all cases: AVEXIS screen signal:noise (double-corrected)
ADP386 = target: ADP386
ADP381 = target: T1, ADP381
T1 chain: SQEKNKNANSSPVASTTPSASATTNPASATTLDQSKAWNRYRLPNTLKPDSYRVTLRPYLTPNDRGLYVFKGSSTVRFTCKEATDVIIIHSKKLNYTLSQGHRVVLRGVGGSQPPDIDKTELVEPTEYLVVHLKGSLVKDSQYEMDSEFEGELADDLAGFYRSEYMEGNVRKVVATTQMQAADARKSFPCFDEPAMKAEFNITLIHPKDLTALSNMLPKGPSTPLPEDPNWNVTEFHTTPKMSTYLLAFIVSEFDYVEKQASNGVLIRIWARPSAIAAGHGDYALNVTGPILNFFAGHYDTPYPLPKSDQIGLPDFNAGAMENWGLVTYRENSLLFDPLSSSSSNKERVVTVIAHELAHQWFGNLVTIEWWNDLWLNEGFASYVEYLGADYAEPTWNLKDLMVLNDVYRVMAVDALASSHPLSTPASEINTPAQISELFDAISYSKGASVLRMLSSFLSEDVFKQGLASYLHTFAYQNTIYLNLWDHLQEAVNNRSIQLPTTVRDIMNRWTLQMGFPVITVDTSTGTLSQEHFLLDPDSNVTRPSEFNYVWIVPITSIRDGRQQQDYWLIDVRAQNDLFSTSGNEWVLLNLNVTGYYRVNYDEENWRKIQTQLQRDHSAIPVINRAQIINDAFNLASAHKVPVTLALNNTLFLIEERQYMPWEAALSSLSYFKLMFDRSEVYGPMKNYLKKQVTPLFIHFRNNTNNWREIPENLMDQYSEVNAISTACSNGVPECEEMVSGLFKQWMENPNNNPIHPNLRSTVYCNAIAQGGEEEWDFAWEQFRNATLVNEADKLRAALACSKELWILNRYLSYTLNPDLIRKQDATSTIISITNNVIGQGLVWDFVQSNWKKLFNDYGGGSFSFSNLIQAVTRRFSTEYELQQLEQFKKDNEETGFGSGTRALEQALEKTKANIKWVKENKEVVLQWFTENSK

ADP385 = target: T2, ADP385
T2 chain: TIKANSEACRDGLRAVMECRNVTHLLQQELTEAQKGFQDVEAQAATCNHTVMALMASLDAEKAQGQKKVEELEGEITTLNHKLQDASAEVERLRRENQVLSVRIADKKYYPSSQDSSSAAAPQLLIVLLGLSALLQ

ADP269 = target: T3, ADP269
T3 chain: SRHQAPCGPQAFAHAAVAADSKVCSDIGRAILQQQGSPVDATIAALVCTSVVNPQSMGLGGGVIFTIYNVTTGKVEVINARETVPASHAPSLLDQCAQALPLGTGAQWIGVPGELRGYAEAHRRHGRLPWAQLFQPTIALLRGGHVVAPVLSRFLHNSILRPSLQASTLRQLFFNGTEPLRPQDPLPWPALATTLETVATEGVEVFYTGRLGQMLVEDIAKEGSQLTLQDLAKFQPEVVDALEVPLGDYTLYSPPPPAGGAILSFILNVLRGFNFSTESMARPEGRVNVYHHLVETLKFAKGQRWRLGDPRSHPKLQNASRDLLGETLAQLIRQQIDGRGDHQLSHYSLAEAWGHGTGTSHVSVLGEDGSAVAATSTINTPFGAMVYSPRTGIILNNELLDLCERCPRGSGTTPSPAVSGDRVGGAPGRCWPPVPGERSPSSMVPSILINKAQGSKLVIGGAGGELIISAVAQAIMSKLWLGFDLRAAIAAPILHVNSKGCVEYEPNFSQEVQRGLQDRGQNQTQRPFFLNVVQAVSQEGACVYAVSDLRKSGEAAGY

ADP096 = target: T4, ADP096
T4 chain: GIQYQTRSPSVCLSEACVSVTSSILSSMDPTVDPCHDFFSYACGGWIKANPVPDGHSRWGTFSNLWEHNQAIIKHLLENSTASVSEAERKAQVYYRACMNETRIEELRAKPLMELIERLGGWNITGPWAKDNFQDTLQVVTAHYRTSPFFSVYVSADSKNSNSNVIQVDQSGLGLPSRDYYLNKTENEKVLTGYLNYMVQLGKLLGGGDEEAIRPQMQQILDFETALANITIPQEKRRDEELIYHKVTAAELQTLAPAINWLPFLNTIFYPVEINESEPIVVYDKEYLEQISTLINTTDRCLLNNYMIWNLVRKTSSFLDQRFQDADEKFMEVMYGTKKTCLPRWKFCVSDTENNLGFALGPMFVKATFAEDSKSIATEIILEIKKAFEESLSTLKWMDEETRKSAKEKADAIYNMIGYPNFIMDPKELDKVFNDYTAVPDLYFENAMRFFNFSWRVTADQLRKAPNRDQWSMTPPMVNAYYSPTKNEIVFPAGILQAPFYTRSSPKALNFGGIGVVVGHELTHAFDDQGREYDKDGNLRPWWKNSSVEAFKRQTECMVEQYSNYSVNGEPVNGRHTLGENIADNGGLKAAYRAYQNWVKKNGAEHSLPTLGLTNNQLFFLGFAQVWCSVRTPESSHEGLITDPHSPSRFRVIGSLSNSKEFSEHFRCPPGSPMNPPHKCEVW

ADP293 = target: T5, ADP293
T5 chain: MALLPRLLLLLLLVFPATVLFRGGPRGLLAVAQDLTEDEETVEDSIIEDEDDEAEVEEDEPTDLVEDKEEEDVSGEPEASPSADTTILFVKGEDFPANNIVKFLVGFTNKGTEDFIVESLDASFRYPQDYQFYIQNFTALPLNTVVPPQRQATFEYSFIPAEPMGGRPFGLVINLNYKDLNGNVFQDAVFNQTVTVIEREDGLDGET

B1: ADP237 (protein)
chain: TKKKVSVSEINFDSAVDDVQWCGNNHMTVLVKTVKGRLYRSSDGGKIWTNIAGNLADKENNKADPSSNHMNEMTTVDLIMVNSVNKNIVLIIGNQKNHYISEDSGETFRLLNYQNKINFWQFHSTKTHWALVSSWTEACYSNDDNSGECMQTLSLTKDLGRTFQLIDIYVVQFNWGDKESHLEDTIYYTRHKNRNGHQQRFSGWSKDVDFVATHNFGKSVDVLVKQGNKFLISNGYIFVAKLNDVIKQTVNMMVSTDGGKTFNKANLPENIHEKSYTVLDTSEGSIMLHVNHGTSSEKINTGNVYISDASGLNYALSLPNNIRTSSGECEFDRVLSLDGVYIANFLDVNNEIKDEDLRFQNFKSAIEEDIAPFETNTEKRKKQYNKGKNEDAVRTVISFNKGGEWSYLKAPKVDSRGNKYECGDNCYLHLHGITNYHQYAPFYSIENAVGIIMGTGNVGSHLRYESDEVNTFLSRDGGVTWIEAHKGPYIYEYGDYGGLIVMADDLRKTNQIVFSWNEGQSWFDFELGQFSIDVDNIVAEPNSASVEFLVYGTRNDVGVLYHLDFNALGQPLCKGLWAADSVSSDYETWSPTSGNFNDKCILGRKITYTRRKQTSECFNGKDLKRTVDKKPCECTPEDYECETGFTRKIGSYECKPNDPTLTIEGCTSSSYFYANAYRKVPGDICVNGWVPEKVPVPCPSYAPFNKAAK
modifications: bait human Fc-tagged dimer; N-glycosylation sequons mutated in Plasmodium baits
binding score (ADP386): 19.2
binding score (ADP381): 8.67
binding score (ADP385): 5.45
binding score (ADP269): 10.4
binding score (ADP096): 16.2
binding score (ADP293): 11.1

Source: PMC11098746 (2024)
